Data taken from the supplement of paper PMC10567573.

B1: PLAGL1 (parent)
chain: TKEKKHQCDHCERCFYTRKDVRRH

Variants of: B1
Test: protein stability index of a GFP-peptide fusion (GPS, HEK-293T) (PSI 1-6); higher = more stable
Conditions: c terminus: a fixed tail appended
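Also: lentivirally expressed fusions sorted by FACS into six bins by GFP to DsRed ratio, PSI derived from sequencing read proportions per bin multiplied by bin number.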

Protein stability index: each site, then its substitutions
Y16: W 3.26 | M 3.75 | A 4.02 | P 3.13 | C 3.74 | Q 3.88 | R 4 | I 3.18 | K 3.14 | N 4.2 | F 3.58 | V 3.75 | L 3.4 | G 3.79 | H 3.46 | S 3.63 | D 4.12 | E 4.19 | T 3.58
C14: V 3.42 | K 3.78 | L 3.06 | E 3.69 | S 3.28 | F 3.18 | A 3.11 | H 3.12 | N 3.25 | Q 3.41 | D 3.54 | R 3.16 | Y 3.27 | I 2.65 | G 4.02 | T 3.6 | W 3.65 | M 3.52 | P 3.29
T17: Y 3.09 | M 3.26 | G 3.05 | E 3.81 | K 3.4 | C 4.01 | W 2.74 | A 3.6 | V 3.22 | N 3.7 | F 4.01 | D 3.61 | H 3.29 | Q 3.44 | P 3.1 | S 3.12 | R 3.63 | I 3.01 | L 3.77
R13: W 2.61 | F 3 | P 2.75 | D 3.79 | K 3.54 | V 3.41 | A 3.77 | Y 2.63 | L 3.27 | I 2.62 | H 3.87 | G 3.25 | C 3.39 | M 3.26 | N 3.81 | E 3.66 | S 3.35 | Q 4.24 | T 3.06
H10: Y 2.46 | W 2.67
C11: S 3.42 | N 3.39 | Q 3.91 | E 4.31 | A 3.62 | V 3.73 | I 3.65 | K 3.86 | L 3.71 | W 3.46 | R 4.11 | D 3.96 | T 3.24 | Y 3.22 | H 3.31 | G 3.61 | F 3.27 | M 3.57 | P 3.98
E12: A 3.05 | R 3.15 | N 3.19 | T 3.15 | I 2.89 | G 4.02 | H 3.34 | F 3.12 | W 2.69 | M 3.15 | Q 3.15 | P 4.17 | S 3.03 | V 3.24 | Y 3.3 | K 3.09 | C 3.27 | L 3 | D 3.6
R18: N 3.58 | C 3.06 | W 3.27 | Y 3.2 | F 2.76 | K 3.09 | P 3.13 | M 2.95 | G 2.87 | V 3.27 | S 3.5 | A 3.54 | E 3.61 | H 3.29 | T 3.29 | L 3.76 | I 3.06 | D 3.82 | Q 3.38
K19: E 4.03 | L 2.9 | C 3.22 | G 3.52 | H 3.55 | P 3.33 | F 3.05 | M 3.06 | N 3.3 | Q 3.89 | A 3.66 | D 3.39 | I 2.52
F15: P 3.06 | H 3.46 | W 3.41 | R 3.77 | T 4.24 | I 3.62 | Y 3.48 | Q 3.79 | G 2.83 | K 3.94 | M 4.05 | V 3.47 | L 3.9 | A 3.79 | C 2.83 | S 3.05 | N 3.48 | E 3.61 | D 2.98
